Source: article PMC11589706, “Cryo-EM structure of PML RBCC dimer reveals CC-mediated octopus-like nuclear body assembly mechanism” (Cell Discovery, 2024)

Key:
[1] = molecular target: the molecule itself; test: SEC; analytical size exclusion on Superdex 200 Increase 10/300 GL in 20 mM HEPES, pH 7.4, 100 mM NaCl, 4% glycerol; all truncations N-terminally fused to MBP
[2] = molecular target: the molecule itself; test: two-hybrid; CheckMate mammalian two-hybrid (Promega) in HeLa Pml-/- cells; pG5-luc, pBIND-PML and pACT-PML at 1:1:1; dual-luciferase read-out 24 h after transfection; normalised to pACT vector:pBIND-PML = 1

Row | Protein | binding result [1] | percent reduction of PML self-interaction (relative luciferase activity) compared to control [2] [%]
1 | MBP-PML_(46–323) (domain or fragment, human, UniProt P29590 46-323, looked up, PML (TRIM19), human, residues 46-323; source: E. coli BL21(DE3), purified; not shown: MBP, N-terminal, kept) PASEEEFQFLRCQQCQAEAKCPKLLPCLHTLCSGCLEASGMQCPICQAPWPLGADTPALDNVFFESLQRRLSVYRQIVDAQAVCTRCKESADFWCFECEQLLCAKCFEAHQWFLKHEARPLAELRNQSVREFLDGTRKTNNIFCSNPNHRTPTLTSIYCRGCSKPLCCSCALLDSSHSELKCDISAEIQQRQEELDAMTQALQEQDSAFGAVHAQMHAAVGQLGRARAETEELIRERVRQVVAHVRAQERELLEAVDARYQRDYEEMASRLGRLDAVL | binds | –
2 | full-length PML L240R, mammalian two-hybrid fusions (natural protein, human, UniProt P29590-5 1-633, looked up, PML (TRIM19) isoform IV, full length, L240R; source: HeLa Pml-/- cells, transfected, mammalian two-hybrid fusion) MEPAPARSPRPQQDPARPQEPTMPPPETPSEGRQPSPSPSPTERAPASEEEFQFLRCQQCQAEAKCPKLLPCLHTLCSGCLEASGMQCPICQAPWPLGADTPALDNVFFESLQRRLSVYRQIVDAQAVCTRCKESADFWCFECEQLLCAKCFEAHQWFLKHEARPLAELRNQSVREFLDGTRKTNNIFCSNPNHRTPTLTSIYCRGCSKPLCCSCALLDSSHSELKCDISAEIQQRQEERDAMTQALQEQDSAFGAVHAQMHAAVGQLGRARAETEELIRERVRQVVAHVRAQERELLEAVDARYQRDYEEMASRLGRLDAVLQRIRTGSALVQRMKCYASDQEVLDMHGFLRQALCRLRQEEPQSLQAAVRTDGFDEFKVRLQDLSSCITQGKDAAVSKKASPEAASTPRDPIDVDLPEEAERVKAQVQALGLAEAQPMAVVQSVPGAHPVPVYAFSIKGPSYGEDVSNTTTAQKRKCSQTQCPRKVIKMESEEGKEARLARSSPEQPRPSTSKAVSPPHLDGPPSPRSPVIGSEVFLPNSNHVASGAGEAEERVVVISSSEDSDAENSSSRELDDSSSESSDLQLEGPSTLRVLDENLADPQAEDRPLVFFDLKIDNESGFSWGYPHPFLI | – | 83.9
3 | full-length PML V123R, mammalian two-hybrid fusions (natural protein, human, UniProt P29590-5 1-633, looked up, PML (TRIM19) isoform IV, full length, V123R; source: HeLa Pml-/- cells, transfected, mammalian two-hybrid fusion) MEPAPARSPRPQQDPARPQEPTMPPPETPSEGRQPSPSPSPTERAPASEEEFQFLRCQQCQAEAKCPKLLPCLHTLCSGCLEASGMQCPICQAPWPLGADTPALDNVFFESLQRRLSVYRQIRDAQAVCTRCKESADFWCFECEQLLCAKCFEAHQWFLKHEARPLAELRNQSVREFLDGTRKTNNIFCSNPNHRTPTLTSIYCRGCSKPLCCSCALLDSSHSELKCDISAEIQQRQEELDAMTQALQEQDSAFGAVHAQMHAAVGQLGRARAETEELIRERVRQVVAHVRAQERELLEAVDARYQRDYEEMASRLGRLDAVLQRIRTGSALVQRMKCYASDQEVLDMHGFLRQALCRLRQEEPQSLQAAVRTDGFDEFKVRLQDLSSCITQGKDAAVSKKASPEAASTPRDPIDVDLPEEAERVKAQVQALGLAEAQPMAVVQSVPGAHPVPVYAFSIKGPSYGEDVSNTTTAQKRKCSQTQCPRKVIKMESEEGKEARLARSSPEQPRPSTSKAVSPPHLDGPPSPRSPVIGSEVFLPNSNHVASGAGEAEERVVVISSSEDSDAENSSSRELDDSSSESSDLQLEGPSTLRVLDENLADPQAEDRPLVFFDLKIDNESGFSWGYPHPFLI | – | 18.5
4 | full-length PML F177R, mammalian two-hybrid fusions (natural protein, human, UniProt P29590-5 1-633, looked up, PML (TRIM19) isoform IV, full length, F177R; source: HeLa Pml-/- cells, transfected, mammalian two-hybrid fusion) MEPAPARSPRPQQDPARPQEPTMPPPETPSEGRQPSPSPSPTERAPASEEEFQFLRCQQCQAEAKCPKLLPCLHTLCSGCLEASGMQCPICQAPWPLGADTPALDNVFFESLQRRLSVYRQIVDAQAVCTRCKESADFWCFECEQLLCAKCFEAHQWFLKHEARPLAELRNQSVRERLDGTRKTNNIFCSNPNHRTPTLTSIYCRGCSKPLCCSCALLDSSHSELKCDISAEIQQRQEELDAMTQALQEQDSAFGAVHAQMHAAVGQLGRARAETEELIRERVRQVVAHVRAQERELLEAVDARYQRDYEEMASRLGRLDAVLQRIRTGSALVQRMKCYASDQEVLDMHGFLRQALCRLRQEEPQSLQAAVRTDGFDEFKVRLQDLSSCITQGKDAAVSKKASPEAASTPRDPIDVDLPEEAERVKAQVQALGLAEAQPMAVVQSVPGAHPVPVYAFSIKGPSYGEDVSNTTTAQKRKCSQTQCPRKVIKMESEEGKEARLARSSPEQPRPSTSKAVSPPHLDGPPSPRSPVIGSEVFLPNSNHVASGAGEAEERVVVISSSEDSDAENSSSRELDDSSSESSDLQLEGPSTLRVLDENLADPQAEDRPLVFFDLKIDNESGFSWGYPHPFLI | – | 45.1
5 | full-length PML V123R/F177R, mammalian two-hybrid fusions (natural protein, human, UniProt P29590-5 1-633, looked up, PML (TRIM19) isoform IV, full length, V123R and F177R; source: HeLa Pml-/- cells, transfected, mammalian two-hybrid fusion) MEPAPARSPRPQQDPARPQEPTMPPPETPSEGRQPSPSPSPTERAPASEEEFQFLRCQQCQAEAKCPKLLPCLHTLCSGCLEASGMQCPICQAPWPLGADTPALDNVFFESLQRRLSVYRQIRDAQAVCTRCKESADFWCFECEQLLCAKCFEAHQWFLKHEARPLAELRNQSVRERLDGTRKTNNIFCSNPNHRTPTLTSIYCRGCSKPLCCSCALLDSSHSELKCDISAEIQQRQEELDAMTQALQEQDSAFGAVHAQMHAAVGQLGRARAETEELIRERVRQVVAHVRAQERELLEAVDARYQRDYEEMASRLGRLDAVLQRIRTGSALVQRMKCYASDQEVLDMHGFLRQALCRLRQEEPQSLQAAVRTDGFDEFKVRLQDLSSCITQGKDAAVSKKASPEAASTPRDPIDVDLPEEAERVKAQVQALGLAEAQPMAVVQSVPGAHPVPVYAFSIKGPSYGEDVSNTTTAQKRKCSQTQCPRKVIKMESEEGKEARLARSSPEQPRPSTSKAVSPPHLDGPPSPRSPVIGSEVFLPNSNHVASGAGEAEERVVVISSSEDSDAENSSSRELDDSSSESSDLQLEGPSTLRVLDENLADPQAEDRPLVFFDLKIDNESGFSWGYPHPFLI | – | 39.1
6 | full-length PML L247R, mammalian two-hybrid fusions (natural protein, human, UniProt P29590-5 1-633, looked up, PML (TRIM19) isoform IV, full length, L247R; source: HeLa Pml-/- cells, transfected, mammalian two-hybrid fusion) MEPAPARSPRPQQDPARPQEPTMPPPETPSEGRQPSPSPSPTERAPASEEEFQFLRCQQCQAEAKCPKLLPCLHTLCSGCLEASGMQCPICQAPWPLGADTPALDNVFFESLQRRLSVYRQIVDAQAVCTRCKESADFWCFECEQLLCAKCFEAHQWFLKHEARPLAELRNQSVREFLDGTRKTNNIFCSNPNHRTPTLTSIYCRGCSKPLCCSCALLDSSHSELKCDISAEIQQRQEELDAMTQARQEQDSAFGAVHAQMHAAVGQLGRARAETEELIRERVRQVVAHVRAQERELLEAVDARYQRDYEEMASRLGRLDAVLQRIRTGSALVQRMKCYASDQEVLDMHGFLRQALCRLRQEEPQSLQAAVRTDGFDEFKVRLQDLSSCITQGKDAAVSKKASPEAASTPRDPIDVDLPEEAERVKAQVQALGLAEAQPMAVVQSVPGAHPVPVYAFSIKGPSYGEDVSNTTTAQKRKCSQTQCPRKVIKMESEEGKEARLARSSPEQPRPSTSKAVSPPHLDGPPSPRSPVIGSEVFLPNSNHVASGAGEAEERVVVISSSEDSDAENSSSRELDDSSSESSDLQLEGPSTLRVLDENLADPQAEDRPLVFFDLKIDNESGFSWGYPHPFLI | – | 75.8
7 | full-length PML I279R, mammalian two-hybrid fusions (natural protein, human, UniProt P29590-5 1-633, looked up, PML (TRIM19) isoform IV, full length, I279R; source: HeLa Pml-/- cells, transfected, mammalian two-hybrid fusion) MEPAPARSPRPQQDPARPQEPTMPPPETPSEGRQPSPSPSPTERAPASEEEFQFLRCQQCQAEAKCPKLLPCLHTLCSGCLEASGMQCPICQAPWPLGADTPALDNVFFESLQRRLSVYRQIVDAQAVCTRCKESADFWCFECEQLLCAKCFEAHQWFLKHEARPLAELRNQSVREFLDGTRKTNNIFCSNPNHRTPTLTSIYCRGCSKPLCCSCALLDSSHSELKCDISAEIQQRQEELDAMTQALQEQDSAFGAVHAQMHAAVGQLGRARAETEELRRERVRQVVAHVRAQERELLEAVDARYQRDYEEMASRLGRLDAVLQRIRTGSALVQRMKCYASDQEVLDMHGFLRQALCRLRQEEPQSLQAAVRTDGFDEFKVRLQDLSSCITQGKDAAVSKKASPEAASTPRDPIDVDLPEEAERVKAQVQALGLAEAQPMAVVQSVPGAHPVPVYAFSIKGPSYGEDVSNTTTAQKRKCSQTQCPRKVIKMESEEGKEARLARSSPEQPRPSTSKAVSPPHLDGPPSPRSPVIGSEVFLPNSNHVASGAGEAEERVVVISSSEDSDAENSSSRELDDSSSESSDLQLEGPSTLRVLDENLADPQAEDRPLVFFDLKIDNESGFSWGYPHPFLI | – | 73.7
8 | full-length PML L178R, mammalian two-hybrid fusions (natural protein, human, UniProt P29590-5 1-633, looked up, PML (TRIM19) isoform IV, full length, L178R; source: HeLa Pml-/- cells, transfected, mammalian two-hybrid fusion) MEPAPARSPRPQQDPARPQEPTMPPPETPSEGRQPSPSPSPTERAPASEEEFQFLRCQQCQAEAKCPKLLPCLHTLCSGCLEASGMQCPICQAPWPLGADTPALDNVFFESLQRRLSVYRQIVDAQAVCTRCKESADFWCFECEQLLCAKCFEAHQWFLKHEARPLAELRNQSVREFRDGTRKTNNIFCSNPNHRTPTLTSIYCRGCSKPLCCSCALLDSSHSELKCDISAEIQQRQEELDAMTQALQEQDSAFGAVHAQMHAAVGQLGRARAETEELIRERVRQVVAHVRAQERELLEAVDARYQRDYEEMASRLGRLDAVLQRIRTGSALVQRMKCYASDQEVLDMHGFLRQALCRLRQEEPQSLQAAVRTDGFDEFKVRLQDLSSCITQGKDAAVSKKASPEAASTPRDPIDVDLPEEAERVKAQVQALGLAEAQPMAVVQSVPGAHPVPVYAFSIKGPSYGEDVSNTTTAQKRKCSQTQCPRKVIKMESEEGKEARLARSSPEQPRPSTSKAVSPPHLDGPPSPRSPVIGSEVFLPNSNHVASGAGEAEERVVVISSSEDSDAENSSSRELDDSSSESSDLQLEGPSTLRVLDENLADPQAEDRPLVFFDLKIDNESGFSWGYPHPFLI | – | 44.9
9 | full-length PML V123R/L178R, mammalian two-hybrid fusions (natural protein, human, UniProt P29590-5 1-633, looked up, PML (TRIM19) isoform IV, full length, V123R and L178R; source: HeLa Pml-/- cells, transfected, mammalian two-hybrid fusion) MEPAPARSPRPQQDPARPQEPTMPPPETPSEGRQPSPSPSPTERAPASEEEFQFLRCQQCQAEAKCPKLLPCLHTLCSGCLEASGMQCPICQAPWPLGADTPALDNVFFESLQRRLSVYRQIRDAQAVCTRCKESADFWCFECEQLLCAKCFEAHQWFLKHEARPLAELRNQSVREFRDGTRKTNNIFCSNPNHRTPTLTSIYCRGCSKPLCCSCALLDSSHSELKCDISAEIQQRQEELDAMTQALQEQDSAFGAVHAQMHAAVGQLGRARAETEELIRERVRQVVAHVRAQERELLEAVDARYQRDYEEMASRLGRLDAVLQRIRTGSALVQRMKCYASDQEVLDMHGFLRQALCRLRQEEPQSLQAAVRTDGFDEFKVRLQDLSSCITQGKDAAVSKKASPEAASTPRDPIDVDLPEEAERVKAQVQALGLAEAQPMAVVQSVPGAHPVPVYAFSIKGPSYGEDVSNTTTAQKRKCSQTQCPRKVIKMESEEGKEARLARSSPEQPRPSTSKAVSPPHLDGPPSPRSPVIGSEVFLPNSNHVASGAGEAEERVVVISSSEDSDAENSSSRELDDSSSESSDLQLEGPSTLRVLDENLADPQAEDRPLVFFDLKIDNESGFSWGYPHPFLI | – | 33.1
10 | MBP-PML_(46–287) (domain or fragment, human, UniProt P29590 46-287, looked up, PML (TRIM19), human, residues 46-287; source: E. coli BL21(DE3), purified; not shown: MBP, N-terminal, kept) PASEEEFQFLRCQQCQAEAKCPKLLPCLHTLCSGCLEASGMQCPICQAPWPLGADTPALDNVFFESLQRRLSVYRQIVDAQAVCTRCKESADFWCFECEQLLCAKCFEAHQWFLKHEARPLAELRNQSVREFLDGTRKTNNIFCSNPNHRTPTLTSIYCRGCSKPLCCSCALLDSSHSELKCDISAEIQQRQEELDAMTQALQEQDSAFGAVHAQMHAAVGQLGRARAETEELIRERVRQVV | binds | –
